Where a chain is given by its changes, count along the chain named.
Assays:
[1] = molecular target: T1, Muc1 mucin bearing the CA6 sialoglycotope (DS6 antigen), as expressed by CA6-positive human tumour cell lines (human, UniProt P15941 24-1255, sialylated O-linked carbohydrate carrying the CA6 glycotope; sites not stated); assay: flow cytometry on HeLa cells (FIG. 28), apparent Kd, probably pM
T1 construct: whole, on cells; It stood on whole cells in flow cytometry and in cell lysates in dot blots, immunoprecipitations and western blots; also called CA6 antigen; Muc1 mucin receptor

[2] = molecular target: T1, Muc1 mucin bearing the CA6 …; assay: flow cytometry competition; competitor 2 nM biotin-muDS6, streptavidin-DTAF; called IC50 in the legend of FIG. 19
Experimental: In the first set of experiments direct binding to a CA6-expressing cell line, KB, was measured.

[3] = molecular target: T1, Muc1 mucin bearing the CA6 …; assay: cell-based or functional assay

B1: murine anti-CA6 monoclonal antibody DS6 (antibody, mouse IgG1, V domains shown)
VH: QAYLQQSGAELVRSGASVKMSCKASGYTFTSYNMHWVKQTPGQGLEWIGYIYPGNGATNYNQKFKGKATLTADPSSSTAYMQISSLTSEDSAVYFCARGDSVPFAYWGQGTLVTVSA
VL: QIVLTQSPAIMSASPGEKVTITCSAHSSVSFMHWFQQKPGTSPKLWIYSTSSLASGVPARFGGSGSGTSYSLTISRMEAEDAATYYCQQRSSFPLTFGAGTKLELKR
notes: Whole murine monoclonal antibody from the hybridoma (ATCC PTA-4449); They were cloned with murine IgG1 and kappa primers; also called muDS6; the DS6 antibody
[1]
  Kd: 620000 nM
[2]
  EC50: 1.9 nM
[3]
  indirect cell viability assay on Caov-3 cells with anti-mouse IgG (H+L) DM1 conjugate, IC50: 425000 nM

B2: chimeric DS6 antibody (antibody, V domains shown)
VH: B1 VH
VL: B1 VL
notes: Expressed in CHO cells; also called chDS6
[2]
  EC50: 1.7 nM

B3: humanized DS6 antibody version 1.21 (antibody, V domains shown)
VH: B1 VH with Y3Q, Q5V, L11V, R13K, S14P, K65Q
VL: B1 VL with Q1E, I10T, K18R, R76S
notes: also called huDS6v1.21; huDS6 v1.21
[2]
  EC50: 1.9 nM

B4: humanized DS6 antibody version 1.01 (antibody, V domains shown)
VH: B1 VH with Y3Q, Q5V, L11V, R13K, S14P, K65Q, P74T
VL: B1 VL with Q1E, I10T, K18R, R76S
notes: also called huDS6v1.01; huDS6 v1.01
[2]
  EC50: 3 nM

Source: patent US20110064733A1 (published 2011)
